The target in experiment [1] is T1, recombinant biotinylated HER2 (manufactured by ACROBiosystems) (human, UniProt P04626 23-652, biotinylated (site not stated)).
T1 construct: also called human HER2
Nature of the experiment: sandwich ELISA: immobilised human CD3E/CD3D heterodimer, BsAb, detection with biotinylated HER2.

The target of experiment [2] is T2, human CD3E/CD3D heterodimer recombinant protein (manufactured by ACROBiosystems) (human, UniProt P07766 23-126; P04234 22-105).
T2 construct: Bought reagent, immobilised on ELISA plates
The experiment in a line: ELISA, immobilised human CD3E/CD3D heterodimer, 10-1000 ng/mL BsAb, absorbance rose with concentration.

In experiment [3] the target is human EGFR on human cancer cell lines (HCT116, A-431, NCI-H1975, HT-29, RKO) (human, UniProt P00533 25-1210). The experiment in a line: cell-based or functional assay.

T2 sequence (P07766 23-126 limits assumed, chain 1 of 2): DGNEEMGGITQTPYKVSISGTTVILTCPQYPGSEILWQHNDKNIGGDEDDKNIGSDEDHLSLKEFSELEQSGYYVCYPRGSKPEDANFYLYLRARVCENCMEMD
T2 sequence (P04234 22-105 limits assumed, chain 2 of 2): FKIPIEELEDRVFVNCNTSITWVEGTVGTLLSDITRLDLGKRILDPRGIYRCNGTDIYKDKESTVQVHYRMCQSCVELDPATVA

B1: LH31 diabody-type BsAb (EGFR×CD3 diabody-type BsAb derived from DUM-31H strain) (bispecific antibody)
chain 1: ATLTPDIQMTQSPSSLSASVGDRVTITCRASQDIRNYLNWYQQKPGKAPKLLIYYTSRLESGVPSRFSGSGSGTDYTLTISSLQPEDFATYYCQQGNTLPWTFGQGTKVEIKAAGGGGSEVQLVESGGGLVQPGGSLRLSCAASGFTLSGDWIHWVRQAPGKGLEWLGEISAAGGYTDYADSVKGRFTISADTSKNTAYLQMNSLRAEDTAVYYCARESRVSFEAAMDYWGQGTLVTVSSAAAAEQKLISEEDLNLGGGMRGSHHHHHH
chain 2: ATLTPDIQMTQSPSSLSASVGDRVTITCRASQDLATDVAWYQQKPGKAPKLLIYSASFLYSGVPSRFSGSGSGTDFTLTISSLQPEDFATYYCQQSEPEPYTFGQGTKVEIKAAGGGGSEVQLVESGGGLVQPGGSLRLSCAASGYSFTGYTMNWVRQAPGKGLEWVALINPYKGVSTYNQKFKDRFTISVDKSKNTAYLQMNSLRAEDTAVYYCARSGYYGDSDWYFDVWGQGTLVTVSSAAAEQKLISEEDLNLGGGMRGSHHHHHH
notes: Heterodimer of polypeptides 1 and 2, secreted by Bifidobacterium longum 105-A carrying pLH31-L5, purified through the His tag; also called LH31 polypeptide 1 + LH31 polypeptide 2 with SP50-L5
On to B1, for which the figures for the binding result in experiment [1] and in experiment [2] were “no binding” and “binds”, respectively. In addition, the “EC50: concentration that reduced the viability of HCT116 cells to 50% (T-LAK:HCT116 5:1, 24 h)” value in experiment [3] turned out to be 32 pM.

The values are drawn from patent publication US20220281998A1 (AZUSAPHARMA SCIENCES, published 2022).
